Results on 23 sequences are retold here after a protein production outcome set (Wang et al. 2014).

The nature of this data set: label from the status in PepcDB records.
On to “MSNLPFHQFCGTEGYVASRALQDVVNVAIALERPLLLKGEPGTGKTLLAYHIAKALGMEIILWNVKSTTKARDGLYTYDTVQRLNDARFGDGDVRDIRHYIKLGPLGRAFGSAERVVLLIDEVDKADIEFPNDLLFELDEMRFHVLETDEWVSAAHRPVVIVTSNSEKELPDAFLRRCVFHYIDFPDETQMRAIIDVHFPDLPAELMRSACKVFYGLREVPGLRKRPSTSELLDWIRVLLASGARLPEEETPALQSVPFLGALVKIQEDADILAHHASRSADVRTAGRRFFRLEHHHHHH”, for which the protein production entry is given as “failed”.

With “MDVAIELTTRVGVLLFFIAICHVIAQRVRLPDPIILTAAGVTIGFGYVALEHVAPAFAANTIAPFLSPAMPPEAYLWIFLPPILFQAAIEVDSSGFVADLGPILLLAIGAVVAATLSVGAVAYLTSGQGLIACLLLGAIVSTTDPSTVIGLFQSSGAPARLIRLVEGESLFNDAAAIAITTLLTGVISVMPTHDAAHFPLAQFLLSLLGGCAVGWLVGVVLVFVSGAMRSPPFAEYSLSLALPNLIYPFAERVLHVSGVAAVVCAGLVVGRIMLSRRPASHVKLFRQLWLYQATIASASVLLLATAHVPSLLDDLRMIDVVILLLVLVAAVASRFGILSVSMPMMSRIGICKPLPVSHQLLIAWGGVRGPVTLTLAICLARNQDLAPDTRHFAAAMAAGFVLLNLFFNGLTLKLFARWLGVAAPGGRRPAAIEVD”, the protein production entry was “failed”.

For “MSRARSLFPEMSDFFAGLPSWASIRPVFGDHIIRIEDEMKDGGYELRAEVPGIDPAKDIDITVRDGVLTIKAERTEKKETNGRSEFAYGSFMRSVTLPPGADEDAIKAGYDKGILTISVPVTEPEAAAEKRVAVETVSPLEHHHHHH”, the protein production entry is “failed”.

Regarding “MSTIEERTPGAVATEPVGHEGARVSINEKNVWSLGAGPAAFALLAMIVLMIASGVFFAQSINTLENDGGGTLAVTGLIASIVVFTVALVVTITSVKVVSPGHTLTVQFFGRYIGTLRRTGLSFVPPLSVTKKVSVRVRNFETNEAKVNDYNGNPINIAAIIVWQVADTAQASFSVEDFEEFLHQQAESALRHVATQHPYDSPVDGRVSLRGATDEVSEELADEVAQRAAVAGLEIVEARISSLSYAPEIAQAMLQRQQASAIVDAREKIVEGAVTMVETALDQLEQREIVDLDPERRAAMVSNLLVVLCSDTNAQPIVNAGSLYQ”, the protein production result is “failed”.

As to “MARNKGWVGATCCFLLFTVVFLSQKIEVSEVAVNDGLRGSPGMLLFLLPGMVACFLSARGRLLYPLFGALAAMPVCLLLLHLWNTPMRSFWQELAYVMSAVFWCVLGAMGVLCLRSLYRRYLR”, the protein production entry is on record as “not failed”.

For “MSIESDMIHVEVVYALPHEQRVFNLVVNNHATVEEIIRQSGVLELYPEIDLAKNKVGVFSRNVKLDATVRDKDRIEIYRPLLADPKEIRRKRAEQAKAAGNADPVTGGKPNALRK”, the protein production entry is “failed”.

Consider “MILVTGFEPFGSLEHNPSQALLDLLPSEVDGKPLRKAVLPVDAEALGEALEDLHREGPKAVLHLGLAEDRPVLTLERLAVNLLDFPRPDNRGRVLEDLPIVPGGPLALPARFPVKPVLARWREAGIPGRPSLSAGSYLCNQAFYLSLYRLPEEVPVGFLHLPPDETLALKRPRPYVPLEVQARAVRLALEHL”, for which the protein production result is recorded as “not failed”.

Take “MKLKNEQQQSWLSLAFVWAGAMISVPGLIIGGTLVAGMPLWEALLTGFIGYGIIVILMILQGIQSSDLQEPSVKVASQVFGIQGSQKIISIILAIACLGWFGLQANVSGGAFTNFLKIYGIDLPVSLSSLIWGIIMLISALYGIKILKILNYFAVPVLVLVCLYGLVASLRNNGWAAVSQYTPQTAGSFMSGLSMTVGSFALGAVIAGDYSQYVSSRKDVVKAATLGILPTGLLMIGVGAVLTIASNTADITEVFMNLGFPVLGIIALILATWTTNAVNAFSGGLALINVFDIPKEKEKVAVGAAGAIGTLLAVVGILNYFTPIMSVLSAMVPPVAGVMIAAYWLINKGDRTKWQPTPGVNKLGVFSWLIGAAVGGIPVIMSFFPNAPQLPNQPLIGIVLSFVIYYFGAKRQQTNTESLEME”: the protein production result was “failed”.

With “MYDYSILPNRIILCVDLRSFYASVSCIKMGLDPMHTKLAVVGDVNRNGSIVLAATPPLKALGVKKMARLYEIPRRKDILVVNPIMSTYIKCSNYITKLALQYVPIEDFHQYSIDEFFMDITDSIHLFAQDPYEFAMKFKREIYDHTRIECTIGIAPNPLMSKVALDIEAKKNKDGIAFWQYEDIPTKLWSIRPLNKFWGISYKTEEKLNRKGIYSIGDLANYPLKYLKQSFGKIGEELHLHSHGIDFSRISEKYVPATTSIGKSQILMRDYTIEEFPIILLEHIEEVCYRLRRQTKLAQTIHFSVGYSKSYTGGIRKTHTLNRPTNLTMDIYHICTYFLHQQYTGEPIRSINISLTNLIQEGEEQISLFDNVTKREQEMKLTKVMDEIRTKFGKNSILRGISYTHSATARHRNTLIGLEHHHHHH”, the protein production entry is on record as “failed”.

Turning to “MGTTEKSGIKEIIIQGLTRAGKPFRPSDWVDRMCSTYASFGADRKLRYSPYLKPRVIEGVRCLAVDLKLKDTNPEGFNQLMHFATENQLNILDAEGNSIDAAQVTEI”, the protein production result was “not failed”.

As for “MLEHHFRSLKAIDRVRAQWLGPQIERYVQSLDELHTSNATVRQHIRALGHFNDFVIARGVTKLEALPDHVDAFVEYWHAGHAGWCKNNQDRAAVTAQSRVPVERMLCLALPDYTRPNNRPAMPFANTVPGFLPFLNDEKGLRQESQQRYLYTLRPFEAYLNRGGIALSGLEPAHISRFLEERAKTLHKAGMRDTAGALRIFLRYLHREGIVATDLVRSVPRGRIYRQASIPRAIGWQDVERLLTSIDRRSILGKRDYAILTLLASYGLRAREIAALCLDDFDWTHAQISIPMRKGGHSTRYPLSATVGDAVISYLQARRSDVPHRQVFLTARSPYIPMRHWTVSAMVGIRMRDIGIQVTRAGSHTLRHACVQHLVEADMPFKVIGDYVGHSHPSSTLVYGKVAVHKLRQIVLFQGEDVL”, the protein production result was “failed”.

As for “MPSDSQNNKRIAQNTLLLYFRMLFLMLVSLYTSRVNLNALGIEDFGIYNVVGGLVAMFSIISGSLVSSISRFITFELGTENKEKLKKVFSTAVSIQFFLVIIVVILAETIGLWFLNNKMVIPEERILAANIIYQFSIISFALSLMSIPYTGTIVAHEKMSAFAYISIFDVIGKLAVALTISIAPIDKLIWFAGFIVFNSTIIQSIYIFYCKRHFEECTYHFIFDKSLLKNMFGFAGWNFIGSIAAILRDQGGNIVINMFCGPAVNAARGVAMQVNNAVSGFVSNFQTALNPQITKSYASGNYDYMMQLIFQGARLSYYILLILALPIISNTHFILQLWLGQVPKHTVLFVQLVLFFTMSESLANPLINAMLATGKIKKFQIIVGGLNLVNLPLSYICLRLGCIPESVVIIAIIISMICEMARVIMLRNMIHFPARSFLKKVYFNVIFVTITASILPLYLHFILEENIYTFTLISVVSFSCTLLSILYIGCSSEERVMVFSKVKVIVNKVSKRYK”, the protein production result is “failed”.

As to “EPRVNTSALQKIAADMSNIIENLDTRELHFEGEEVDYDVSPSDPKIQEVYIPFSAIYNTQGFKEPNIQTYLSGCPIKAQVLEVERFTSTTRVPSINLYTIELTHGEFKWQVKRKFKHFQEFHRELLKYKAFIRIPIPTRRHTFRRQN”, the protein production result is listed as “failed”.

Regarding “SWLYGKSDARWTITEYADLECPYCRTYTPQLMQWIDGQTDVNLVWHHFPLQMHGAATLKEARLVQCAGKLGGGKAFWNAIDQVLKHTRGDGQGLVTSIALSGIDAVVLDRCATLDADVALHVDQQLQLAQQAGVTATPTIKITDTQTRHSVRLEGPVDEVSILSAMDRLAFESK”, the protein production result was “failed”.

As for “MVRRCETQRGRWDNKVNILKDTDKFGFDLGFQLQESKKRFGPDLGFCIKRFAPPILQMSLEENENGPKPTWQIRSNRETSKAIRSAPPLTFSSFTGVSLGRKLPNNKNPESSKTRQEGFDTVEEGLKGDRGRTSVDRSEYDGG”, the protein production result is on record as “failed”.

“MAKTLFWLCLLLPFYAWVGYPLLLALLSLFVRPRPVQEGAPLSVSVIIAAHNEGPHIEHKLRTLLQQDYPATDLQIILASDGSSDDTVATALGVRDSRIVVLDLPRVGKAGALNAAVELARNDILVFTDADNQWSHDTLGKLLAPLSDPQVGACGGHMIIPDPGHNLSLGDSLYRHYEAWLRQAENRTGCMVSADGALLALRRELFQRIPAEVNDDFFISTCAPVAGKRIVYVEEAQVLDQGVDEAGKQYRRRLRVTVGGLQSLAQRRELMNPLRHGAYAIALISHKLIRRLAPVLLLPLLVSSLLLWNAGAFYSLALLAQVLGYGAGIMGLLDRRGRLPKVFRLAGFVLVTMAGMSMGLWQFLRGQRYALWNPQQNR”: the protein production entry is “failed”.

“MRKVSISILFMLVSLTWGTTWLAMRIAVETIPPVFATGMRFMFAAPFLIIIAWLRKKTLLFPPGQRLFQFVICIFYFSIPFSLMIYGETYVNSGLAAIIFANMPVAVLIASVLFLNEKAKLMQIAGLTIAITALTGILLEEANTSTESHWQGITALISAVLIHAIIYTQCKKRSCTVSVITFNALPCLLAGLILSATGWFFERPQVSTFSVHSILATLYLGAFAGVFGILCYFALQQKANAFQASLVFLIFPLIAVSLEDYIYGYAISTHSMLLIIPLAIGIFLTLVARNIPVTSRCRDNSSQE”: the protein production result is reported as “failed”.

“MAKNKLLRMDNVSIVVESLDNAISFFEEIGLNLEGRANVEGEWAGRVTGLGSQCVEIAMMVTPDGHSRIELSRFLTPPTIADHRTAPVNALGYLRVMFTVEDIDEMVSRLTKHGAELVGEVVQYENSYRLCYIRGVEGILIGLAEELGNK”: the protein production entry was “not failed”.

Regarding “MSLASYFIGVDVGTGSARAGVFDLQGRMVGQASREITMFKPKADFVEQSSENIWQAVCNAVRDAVNQADINPIQVKGLGFDATCSLVVLDKEGNPLTVSPSGRNEQNVIVWMDHRAITQAERINATKHPVLEFVGGVISPEMQTPKLLWLKQHMPNTWSNVGHLFDLPDFLTWRATKDETRSLCSTVCKWTYLGHEDRWDPSYFKLVGLADLLDNNAAKIGATVKPMGAPLGHGLSQRAASEMGLIPGTAVSVSIIDAHAGTIGILGASGVTGENANFDRRIALIGGTSTAHMAMSRSAHFISGIWGPYYSAILPEYWLNEGGQSATGALIDHIIQSHPCYPALLEQAKNKGETIYEALNYILRQMAGEPENIAFLTNDIHMLPYFHGNRSPRANPNLTGIITGLKLSTTPEDMALRYLATIQALALGTRHIIETMNQNGYNIDTMMASGGGTKNPIFVQEHANATGCAMLLPEESEAMLLGSAMMGTVAAGVFESLPEAMAAMSRIGKTVTPQTNKIKAYYDRKYRVFHQMYHDHMRYQALMQEGEGHHHHHH”, the protein production result is given as “not failed”.

“MAPKAGKKPAEKKPAEKAPAEEEKVAEKAPAEKKPKAGKKLPKEAVTGGVEKKKKRVKKSTETYKIYIFKVLKQVHPDIGISSKAMGIMNSFINDIFEKLAQEASKLARYNKKPTITSREIQTAVRLVLPGELAKHAVSEGTKAVTKFTSS”: the protein production entry was “failed”.

Take “MGKRLYAVAYDIPDDTRRVKLANLLKSYGERVQLSVFECYLDERLLEDLRRRARRLLDLGQDALRIYPVAGQVEVLGVGPLPELREVQVL”: the protein production entry is on record as “not failed”.

With “MALVYLVQSDTTIGLLSKDSEKLNALKGRPKNQSVLIESADFSTLKSLVRAPNAFKNLIRRSAKTTFIYPNSKAVRVIRGRHGDFLNRFKTLYSTSANLTQCAYDKEIASNLADVIVSDERGLFESSSSKIFRLYKDKKVRIR”, the protein production result is on record as “failed”.

“MEVVRIPEFKEKTAPGAYYQQPAIDGSRPGRFYANLFDIKATPKYGMRTLAYHEGIPGHHFQVAVAMELEGQPLIRKMAPFTAYIEGWALYSERVAWELGFQQDPFDNIGRLQAELFRAVRLVVDTGIHHSRWTREQAIDYMKKNTGMSDRDVTAEIERYIVMPGQATAYKVGMMKILELREKAKQALGDKFDLRDFHDVVLKNGAVPLDILEKLVDRYIADKR”: the protein production entry is given as “failed”.
